What was measured:
[1] = system: KIBRA (KIdney BRAin protein)
PKC zeta = target: T1, PKC zeta (Homo sapiens, UniProt Q05513); assay: PKC zeta kinase activity assay on pulldowns from COS cells; type: biochemical; conditions: pulldowns from COS cells over-expressing PKC zeta and KIBRA vs PKC zeta alone
T1 construct: expressed in transfected cells; host or cells: COS cells
T1 sequence (Q05513 1-592): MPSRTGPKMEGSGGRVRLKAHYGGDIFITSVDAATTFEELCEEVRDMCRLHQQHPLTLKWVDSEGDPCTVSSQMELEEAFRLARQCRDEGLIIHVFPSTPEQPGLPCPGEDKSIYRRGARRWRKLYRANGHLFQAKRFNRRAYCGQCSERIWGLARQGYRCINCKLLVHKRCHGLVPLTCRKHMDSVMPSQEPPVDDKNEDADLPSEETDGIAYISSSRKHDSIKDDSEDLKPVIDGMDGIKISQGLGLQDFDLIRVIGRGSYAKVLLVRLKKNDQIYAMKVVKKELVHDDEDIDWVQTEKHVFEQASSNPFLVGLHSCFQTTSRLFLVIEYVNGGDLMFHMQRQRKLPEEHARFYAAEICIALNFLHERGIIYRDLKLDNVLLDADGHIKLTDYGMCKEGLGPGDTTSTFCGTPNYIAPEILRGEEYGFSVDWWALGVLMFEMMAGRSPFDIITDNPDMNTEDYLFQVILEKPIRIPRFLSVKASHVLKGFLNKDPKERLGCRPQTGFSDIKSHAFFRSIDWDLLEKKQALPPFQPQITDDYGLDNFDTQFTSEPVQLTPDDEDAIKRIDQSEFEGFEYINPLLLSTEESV
Method: To investigate the impact of KIBRA on PKC zeta activity itself, PKC zeta activity were determined in an enzyme assay. The kinase activity in the assay is detected by the phosphorylation of a substrate peptide by an antibody reaction according to manufactures instruction (HTScan PKC zeta kinase assay kit, Cell Signaling Technology Inc., Danvers, Mass., USA). The antibody is detected by a lanthanide-labeled secondary antibody, which can be measured in a fluorescent plate reader.
In order to analyze PKC zeta activity with and without KIBRA, COS cells over-expressing PKC zeta alone or in combination with KIBRA were lysed and PKC zeta was pulled down with respective PKC zeta binding beads.
Previous studies have shown that PKC zeta co-immunoprecipitates with KIBRA, and immunoreactive bands for KIBRA in the western blot analysis confirmed that PKC zeta pulldowns include KIBRA protein from cells also over-expressing KIBRA. When pulldowns from cells over-expressing PKC zeta were compared to cells over-expressing both PKC zeta and KIBRA for the phosphorylation of substrate peptide in the activity assay, a strong increase of PKC zeta activity by 50% was observed. […] Analysis of the kinase activity of the truncated form confirmed that the phosphorylation of the peptide was only mediated by PKC zeta and no other kinase attached to the beads.

Substance	PKC zeta kinase activity (phosphorylation of substrate peptide, HTScan PKC zeta kinase assay kit) of PKC zeta pulldowns [1]	increase of PKC zeta activity (PKC zeta) [%]
protein kinase C zeta	a strong increase of PKC zeta activity by 50% was observed	
KIBRA: KIBRA protein over-expressed in COS cells together with PKC zeta		50
